Measured values reported in the supplement of paper PMC7125110.
± gives the standard error. For part of these data: Variants at the floor of the assay were thinned out.

B1: glmS ribozyme (parent)
chain: AUAAAAGCGCCAGAACUACAGAAAUGUAGUUGACGAGGAGGAGGUUUAUCGAAUUUUCGGCGGAUGCCUCCAAA

What was measured:
Settings in all cases: with glucosamine-6-phosphate
glucosamine-6-phosphate [1] = variants of: B1; experiment: kcat; higher = faster cleavage; RNA array
Method in brief: (§1)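 Barcoded ribozyme variants on sequenced MiSeq chips were transcribed in situ by E. coli RNA polymerase and followed at 37 °C through a hybridised Cy3 probe. Glucosamine-6-phosphate at 40 μM to 10 mM in HEPES/KCl/Mg(OAc)2 buffer was flowed in, and tiles were imaged over ~14 h. Signals were normalised to baseline and to non-cleaving reference variants, and per-tile medians were fit to one- or two-exponential decays to give kobs. Weighted Michaelis–Menten fits across concentrations gave kcat and KM.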

glucosamine-6-phosphate [2] = variants of: B1; experiment: self-cleavage kobs at 40 uM GlcN6P; higher = faster cleavage; RNA array
Method in brief: as §1

glucosamine-6-phosphate [3] = variants of: B1; experiment: KM; higher = weaker cofactor use; RNA array
Method in brief: as §1

glucosamine-6-phosphate [4] = variants of: B1; experiment: self-cleavage kobs at 640 uM GlcN6P; higher = faster cleavage; RNA array
Method in brief: as §1

glucosamine-6-phosphate [5] = variants of: B1; experiment: self-cleavage kobs at 2500 uM GlcN6P; higher = faster cleavage; RNA array
Method in brief: as §1

glucosamine-6-phosphate [6] = variants of: B1; experiment: self-cleavage kobs at 10000 uM GlcN6P; higher = faster cleavage; RNA array
Method in brief: as §1

glucosamine-6-phosphate [7] = variants of: B1; experiment: self-cleavage kobs at 160 uM GlcN6P; higher = faster cleavage; RNA array
Method in brief: as §1

## C10U A53U
glucosamine-6-phosphate [1]
  kcat: 1.55e-05 ± 3.9e-06 s⁻¹

## A6U U46G C58A
glucosamine-6-phosphate [2]
  self-cleavage kobs at 40 uM GlcN6P: < 1e-05 s⁻¹

## A14G G66C
glucosamine-6-phosphate [1]
  kcat: 0.00168 ± 6.5e-05 s⁻¹
glucosamine-6-phosphate [3]
  KM: 1410 ± 110 µM
glucosamine-6-phosphate [2]
  self-cleavage kobs at 40 uM GlcN6P: 4.79e-05 ± 9.1e-06 s⁻¹
glucosamine-6-phosphate [4]
  self-cleavage kobs at 640 uM GlcN6P: 0.000484 ± 0.00012 s⁻¹
glucosamine-6-phosphate [5]
  self-cleavage kobs at 2500 uM GlcN6P: 0.00114 ± 0.00025 s⁻¹
glucosamine-6-phosphate [6]
  self-cleavage kobs at 10000 uM GlcN6P: 0.00147 ± 0.00015 s⁻¹

## A39G C71U
glucosamine-6-phosphate [3]
  KM: 370 ± 140 µM
glucosamine-6-phosphate [2]
  self-cleavage kobs at 40 uM GlcN6P: 0.00144 ± 0.00017 s⁻¹
glucosamine-6-phosphate [7]
  self-cleavage kobs at 160 uM GlcN6P: 0.00396 ± 0.00059 s⁻¹
glucosamine-6-phosphate [4]
  self-cleavage kobs at 640 uM GlcN6P: 0.00783 ± 0.0012 s⁻¹
glucosamine-6-phosphate [5]
  self-cleavage kobs at 2500 uM GlcN6P: 0.0119 ± 0.0027 s⁻¹
glucosamine-6-phosphate [6]
  self-cleavage kobs at 10000 uM GlcN6P: 0.0284 ± 0.0069 s⁻¹

## G29A A64U
glucosamine-6-phosphate [3]
  KM: 593 ± 20 µM

## C11U G37U G43U G63U
glucosamine-6-phosphate [2]
  self-cleavage kobs at 40 uM GlcN6P: < 1e-05 s⁻¹
glucosamine-6-phosphate [5]
  self-cleavage kobs at 2500 uM GlcN6P: < 1e-05 s⁻¹
glucosamine-6-phosphate [6]
  self-cleavage kobs at 10000 uM GlcN6P: < 1e-05 s⁻¹

## A15U U46G G51U
glucosamine-6-phosphate [3]
  KM: 56.5 ± 15 µM

## G29U C71A
glucosamine-6-phosphate [2]
  self-cleavage kobs at 40 uM GlcN6P: 5.78e-05 ± 1.4e-05 s⁻¹
glucosamine-6-phosphate [4]
  self-cleavage kobs at 640 uM GlcN6P: 0.000172 ± 4.8e-05 s⁻¹
glucosamine-6-phosphate [5]
  self-cleavage kobs at 2500 uM GlcN6P: 0.000288 ± 0.00011 s⁻¹
glucosamine-6-phosphate [6]
  self-cleavage kobs at 10000 uM GlcN6P: 0.00103 ± 0.00015 s⁻¹

## A53G C71U
glucosamine-6-phosphate [2]
  self-cleavage kobs at 40 uM GlcN6P: 0.000921 ± 0.00014 s⁻¹
glucosamine-6-phosphate [7]
  self-cleavage kobs at 160 uM GlcN6P: 0.0017 ± 0.00029 s⁻¹
glucosamine-6-phosphate [4]
  self-cleavage kobs at 640 uM GlcN6P: 0.00661 ± 0.0013 s⁻¹
glucosamine-6-phosphate [6]
  self-cleavage kobs at 10000 uM GlcN6P: 0.0402 ± 0.013 s⁻¹

## C16U C68G
glucosamine-6-phosphate [1]
  kcat: 8.6e-05 ± 6.4e-06 s⁻¹
glucosamine-6-phosphate [3]
  KM: 307 ± 140 µM
glucosamine-6-phosphate [4]
  self-cleavage kobs at 640 uM GlcN6P: 5.77e-05 ± 1e-05 s⁻¹
glucosamine-6-phosphate [5]
  self-cleavage kobs at 2500 uM GlcN6P: 8.4e-05 ± 1e-05 s⁻¹
glucosamine-6-phosphate [6]
  self-cleavage kobs at 10000 uM GlcN6P: 7.86e-05 ± 9.3e-06 s⁻¹

## C11G G40A G43A
glucosamine-6-phosphate [2]
  self-cleavage kobs at 40 uM GlcN6P: < 1e-05 s⁻¹
glucosamine-6-phosphate [6]
  self-cleavage kobs at 10000 uM GlcN6P: < 1e-05 s⁻¹

## A6G A52U C61G
glucosamine-6-phosphate [2]
  self-cleavage kobs at 40 uM GlcN6P: < 1e-05 s⁻¹

## C11A A12U A52U
glucosamine-6-phosphate [2]
  self-cleavage kobs at 40 uM GlcN6P: < 1e-05 s⁻¹

## A36U A53U
glucosamine-6-phosphate [3]
  KM: 148 ± 37 µM

## A12U G41A G44C U55G
glucosamine-6-phosphate [2]
  self-cleavage kobs at 40 uM GlcN6P: < 1e-05 s⁻¹
glucosamine-6-phosphate [6]
  self-cleavage kobs at 10000 uM GlcN6P: < 1e-05 s⁻¹

## A42G C70A
glucosamine-6-phosphate [1]
  kcat: 0.000182 ± 4.2e-05 s⁻¹
glucosamine-6-phosphate [2]
  self-cleavage kobs at 40 uM GlcN6P: 4.72e-05 ± 8.8e-06 s⁻¹
glucosamine-6-phosphate [7]
  self-cleavage kobs at 160 uM GlcN6P: 6.35e-05 ± 1.1e-05 s⁻¹
glucosamine-6-phosphate [4]
  self-cleavage kobs at 640 uM GlcN6P: 0.000154 ± 1.6e-05 s⁻¹
glucosamine-6-phosphate [5]
  self-cleavage kobs at 2500 uM GlcN6P: 0.000325 ± 3.7e-05 s⁻¹
glucosamine-6-phosphate [6]
  self-cleavage kobs at 10000 uM GlcN6P: 0.000155 ± 1.5e-05 s⁻¹

## A6C G13C A52G
glucosamine-6-phosphate [2]
  self-cleavage kobs at 40 uM GlcN6P: < 1e-05 s⁻¹
glucosamine-6-phosphate [6]
  self-cleavage kobs at 10000 uM GlcN6P: < 1e-05 s⁻¹

## C8A A64U
glucosamine-6-phosphate [2]
  self-cleavage kobs at 40 uM GlcN6P: < 1e-05 s⁻¹
glucosamine-6-phosphate [7]
  self-cleavage kobs at 160 uM GlcN6P: < 1e-05 s⁻¹
glucosamine-6-phosphate [4]
  self-cleavage kobs at 640 uM GlcN6P: < 1e-05 s⁻¹
glucosamine-6-phosphate [5]
  self-cleavage kobs at 2500 uM GlcN6P: < 1e-05 s⁻¹
glucosamine-6-phosphate [6]
  self-cleavage kobs at 10000 uM GlcN6P: < 1e-05 s⁻¹

## G59C C67G C70G
glucosamine-6-phosphate [2]
  self-cleavage kobs at 40 uM GlcN6P: < 1e-05 s⁻¹

## G32C C61G
glucosamine-6-phosphate [1]
  kcat: < 1e-05 s⁻¹
glucosamine-6-phosphate [2]
  self-cleavage kobs at 40 uM GlcN6P: < 1e-05 s⁻¹
glucosamine-6-phosphate [4]
  self-cleavage kobs at 640 uM GlcN6P: < 1e-05 s⁻¹

## G32U U55A
glucosamine-6-phosphate [1]
  kcat: 0.00193 ± 0.00061 s⁻¹
glucosamine-6-phosphate [3]
  KM: 9310 ± 4500 µM
glucosamine-6-phosphate [2]
  self-cleavage kobs at 40 uM GlcN6P: 2.84e-05 ± 1e-05 s⁻¹
glucosamine-6-phosphate [7]
  self-cleavage kobs at 160 uM GlcN6P: 4.22e-05 ± 1.4e-05 s⁻¹
glucosamine-6-phosphate [4]
  self-cleavage kobs at 640 uM GlcN6P: 0.000132 ± 2e-05 s⁻¹
glucosamine-6-phosphate [5]
  self-cleavage kobs at 2500 uM GlcN6P: 0.000332 ± 5.9e-05 s⁻¹
glucosamine-6-phosphate [6]
  self-cleavage kobs at 10000 uM GlcN6P: 0.00102 ± 8.2e-05 s⁻¹

## G40U A42C
glucosamine-6-phosphate [1]
  kcat: 1.23e-05 ± 9.1e-08 s⁻¹
glucosamine-6-phosphate [3]
  KM: 2280 ± 50 µM

## A14C U56A
glucosamine-6-phosphate [1]
  kcat: 0.00449 ± 0.0013 s⁻¹
glucosamine-6-phosphate [3]
  KM: 3990 ± 1600 µM
glucosamine-6-phosphate [2]
  self-cleavage kobs at 40 uM GlcN6P: 7.03e-05 ± 9e-06 s⁻¹
glucosamine-6-phosphate [7]
  self-cleavage kobs at 160 uM GlcN6P: 0.000133 ± 2.8e-05 s⁻¹
glucosamine-6-phosphate [4]
  self-cleavage kobs at 640 uM GlcN6P: 0.000559 ± 6.3e-05 s⁻¹
glucosamine-6-phosphate [5]
  self-cleavage kobs at 2500 uM GlcN6P: 0.00196 ± 0.00028 s⁻¹
glucosamine-6-phosphate [6]
  self-cleavage kobs at 10000 uM GlcN6P: 0.00318 ± 0.00032 s⁻¹
